From paper PMC4838375 come the findings set out here.

What all share (experiment): ITC
(In ITC the heat of successive injections is recorded.)

Experiment [1] concerns the target PHDVC5HCH_(NSD1) tandem domain (murine NSD1, Glu2117–Asp2207), wild type (mouse).
The target of experiment [2] is PHDVC5HCH_(NSD1) E2204A (mouse) (UniProt O88491).
For experiment [3], the target named is PHDVC5HCH_(NSD1) H2205R (mouse) (UniProt O88491).
Experiment [4] has as its target PHDVC5HCH_(NSD1) R2152Q (mouse) (UniProt O88491).

C2HR_(Nizp1) R427A (peptide) had a dH in experiment [1] of 1.7 kcal/mol.
A word on the Kd: it is the free concentration of one partner at which half of the binding sites on the other are occupied at equilibrium, for simple one-to-one binding. Higher therefore signals lower affinity. By stoichiometry N is commonly meant a count of units in the complex or per binding partner. Take “C2HR_(Nizp1) synthetic peptide (murine Nizp1, E397-K434), wild type”: the Kd in experiment [2] is 45.2 µM; in experiment [3] it was 27.2 µM; in experiment [4], 4.9 µM; in experiment [1] it was 3.8 µM. Further, the dH in experiment [4] was found to be 3.5 kcal/mol; in experiment [1], 4.1 kcal/mol. For the same substance, the stoichiometry N in experiment [1] was determined as 1.1.
In experiment [1], C2HR_(Nizp1) R417A (peptide) came in with a Kd of 36 µM, a dH of 1.5 kcal/mol and a stoichiometry N of 1.1.
The like results for C2HR_(Nizp1) R415A (peptide) were, in that order, 6.1 µM, 2.2 kcal/mol and 1.1.
